Reference: publication PMC3561947

Biological target: His-tagged human polι P680A (pJRM86) (human)
Experiment: far-Western, overlay or dot blot

- percent of wild type (% of wild type): 40
Substance: in vitro translated 35S-labeled ubiquitin (from pBP129) (from UniProt P0CG47 1-76) (natural protein)
